T1: human antizyme inhibitor, wild type (human, UniProt O14977 1-448)
T1 sequence (looked up): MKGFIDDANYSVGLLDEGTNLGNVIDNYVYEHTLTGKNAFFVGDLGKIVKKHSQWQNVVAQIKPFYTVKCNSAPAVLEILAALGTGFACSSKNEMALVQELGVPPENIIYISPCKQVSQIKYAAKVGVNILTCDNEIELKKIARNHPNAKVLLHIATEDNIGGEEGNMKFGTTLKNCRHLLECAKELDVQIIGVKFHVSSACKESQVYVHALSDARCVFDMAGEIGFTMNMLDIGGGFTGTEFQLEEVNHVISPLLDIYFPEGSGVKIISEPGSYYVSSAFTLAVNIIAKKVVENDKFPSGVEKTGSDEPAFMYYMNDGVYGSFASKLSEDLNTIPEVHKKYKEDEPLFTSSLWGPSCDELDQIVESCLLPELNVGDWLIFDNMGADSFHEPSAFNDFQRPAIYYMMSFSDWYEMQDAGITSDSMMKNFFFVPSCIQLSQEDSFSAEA

B1: human antizyme peptide AZ_87-124 (domain or fragment)
chain: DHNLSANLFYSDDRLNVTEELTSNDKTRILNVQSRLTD
B2: human antizyme, wild type (natural protein)
chain: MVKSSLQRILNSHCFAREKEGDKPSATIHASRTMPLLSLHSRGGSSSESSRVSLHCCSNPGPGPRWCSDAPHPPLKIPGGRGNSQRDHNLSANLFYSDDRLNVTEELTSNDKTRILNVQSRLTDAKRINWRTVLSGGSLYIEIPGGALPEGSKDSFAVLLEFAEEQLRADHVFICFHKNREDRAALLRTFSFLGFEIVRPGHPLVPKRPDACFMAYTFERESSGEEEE
B3: human antizyme peptide AZ_95-228 (domain or fragment)
chain: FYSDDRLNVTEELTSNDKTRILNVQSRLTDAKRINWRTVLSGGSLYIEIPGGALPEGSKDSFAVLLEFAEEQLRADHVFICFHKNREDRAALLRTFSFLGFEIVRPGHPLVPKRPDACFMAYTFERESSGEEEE
B4: human antizyme peptide AZ_95-176 (domain or fragment)
chain: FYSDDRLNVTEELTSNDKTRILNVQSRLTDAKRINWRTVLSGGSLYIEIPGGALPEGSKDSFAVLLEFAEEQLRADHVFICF
B5: human antizyme peptide AZ_100-228 (domain or fragment)
chain: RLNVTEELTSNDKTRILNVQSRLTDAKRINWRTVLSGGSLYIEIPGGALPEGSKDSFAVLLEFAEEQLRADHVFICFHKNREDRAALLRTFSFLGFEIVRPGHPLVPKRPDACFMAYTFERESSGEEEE
B6: human antizyme peptide AZ_95-135 (domain or fragment)
chain: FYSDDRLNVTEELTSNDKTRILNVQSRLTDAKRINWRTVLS
B7: human antizyme peptide AZ_100-176 (domain or fragment)
chain: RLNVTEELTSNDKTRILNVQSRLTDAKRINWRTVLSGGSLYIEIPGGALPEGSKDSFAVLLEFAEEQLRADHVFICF
B8: human antizyme peptide AZ_95-124 (domain or fragment)
chain: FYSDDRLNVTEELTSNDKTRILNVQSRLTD
B9: human ornithine decarboxylase, wild type (enzyme, UniProt P11926 1-461, looked up)
chain: MNNFGNEEFDCHFLDEGFTAKDILDQKINEVSSSDDKDAFYVADLGDILKKHLRWLKALPRVTPFYAVKCNDSKAIVKTLAATGTGFDCASKTEIQLVQSLGVPPERIIYANPCKQVSQIKYAANNGVQMMTFDSEVELMKVARAHPKAKLVLRIATDDSKAVCRLSVKFGATLRTSRLLLERAKELNIDVVGVSFHVGSGCTDPETFVQAISDARCVFDMGAEVGFSMYLLDIGGGFPGSEDVKLKFEEITGVINPALDKYFPSDSGVRIIAEPGRYYVASAFTLAVNIIAKKIVLKEQTGSDDEDESSEQTFMYYVNDGVYGSFNCILYDHAHVKPLLQKRPKPDEKYYSSSIWGPTCDGLDRIVERCDLPEMHVGDWMLFENMGAYTVAAASTFNGFQRPTIYYVMSGPAWQLMQQFQNPDFPPEVEEQDASTLPVSCAWESGMKRHRAACASASINV
notes: ornithine decarboxylase (ODC, EC 4.1.1.17), human, wild type; Kd was fitted with an A+B to AB model; also called ODC

target: B9; assay: cell-based or functional assay; conditions: not given

Point of comparison: B7, “IC50 of inhibition of ODC enzyme activity (ODC 0.19 µM), without AZI” value 430 nM. Against it:
- B1 — within 1.5-fold, 520 nM
- B2 — 2.7-fold lower, 160 nM
- B3 — 2.7-fold lower, 160 nM
- B4 — 2.1-fold lower, 200 nM
- B5 — 2-fold lower, 210 nM
- B6 — within 1.5-fold, 510 nM
- B8 — 1.5-fold higher, 650 nM

target: T1, human antizyme inhibitor, wild type; assay: cell-based or functional assay; conditions: not given

Point of comparison: B5, “IC50 of inhibition of ODC enzyme activity with ODC pre-incubated with equimolar AZI (m1 as the enzyme)” value 620 nM. Against it:
- B1 — 2.5-fold higher, 1550 nM
- B2 — within 1.5-fold, 500 nM
- B3 — within 1.5-fold, 570 nM
- B4 — within 1.5-fold, 680 nM
- B6 — 2.6-fold higher, 1590 nM
- B7 — 2.3-fold higher, 1420 nM
- B8 — 3.2-fold higher, 1980 nM

target: T1, human antizyme inhibitor, wild type; assay: AUC; sedimentation velocity, 20°C; AZI fixed at 0.3 mg/mL, AZ or AZ peptide 0.05 to 0.24 mg/mL (molar ratio AZ/AZI 0.4 to 2.4); 30 mM Tris-HCl pH 7.4, 25 mM NaCl; global fit to the A+B to AB hetero-association model in SEDPHAT; conditions: both partners purified

Point of comparison: B1, Kd 160 ± 1 nM. Against it:
- B2 — 5.9-fold lower, 27 ± 0.1 nM
- B3 — 6.7-fold lower, 24 ± 0.2 nM
- B4 — 2.7-fold lower, 60 ± 4 nM
- B5 — 2.4-fold lower, 68 ± 0.7 nM
- B8 — 1.8-fold higher, 280 ± 2 nM

Target: the molecule itself
Assay: AUC; sedimentation velocity, 42,000 rpm, 20°C; ODC fixed at 0.3 mg/mL, AZ or AZ peptide 0.015 to 0.2 mg/mL (molar ratio AZ/ODC 0.12 to 2); 30 mM Tris-HCl pH 7.4, 25 mM NaCl; global fit to the A+B to AB hetero-association model in SEDPHAT
Conditions: not given

B9: binds.

target: B9; assay: as above; conditions: both partners purified

Point of comparison: B5, Kd 5300 ± 30 nM. Against it:
- B1 — 2.4-fold higher, 12700 ± 280 nM
- B2 — 7.5-fold lower, 710 ± 5 nM
- B3 — 3.5-fold lower, 1500 ± 10 nM
- B4 — within 1.5-fold, 5600 ± 40 nM
- B6 — 1.9-fold higher, 10300 ± 70 nM
- B7 — 2-fold higher, 10800 ± 70 nM
- B8 — 3.5-fold higher, 18600 ± 130 nM

— PMC3170320, “Minimal Antizyme Peptide Fully Functioning in the Binding and Inhibition of Ornithine Decarboxylase and Antizyme Inhibitor” (PLoS ONE, 2011)
